Experimental data: patent US7312045B2, “Aggrecanase-1 and -2 peptide substrates and methods” (Ortho-McNeil Pharmaceutical, Inc., priority 2002, dated 2007)
Primed or numbered codes have the meaning given here. No end group written: not given here. *: point of attachment. Dabcyl′ = CN(C)c1ccc(/N=N/c2ccc(C(=O)*)cc2)cc1

What was measured:
Format in all cases: biochemical
[1] = target: T1, aggrecanase-2 (Homo sapiens, UniProt Q9UNA0); assay: IC50 analysis for inhibition of aggrecanase-2, FasL1 FRET peptide cleavage; conditions: FasL1 225 μM, 60 minutes at room temperature, inhibitor 0.1 to 12.5 μM
T1 construct: made in house; host or cells: Sf9 cells (baculovirus, pFastBac1)
T1 sequence (Q9UNA0 262-482): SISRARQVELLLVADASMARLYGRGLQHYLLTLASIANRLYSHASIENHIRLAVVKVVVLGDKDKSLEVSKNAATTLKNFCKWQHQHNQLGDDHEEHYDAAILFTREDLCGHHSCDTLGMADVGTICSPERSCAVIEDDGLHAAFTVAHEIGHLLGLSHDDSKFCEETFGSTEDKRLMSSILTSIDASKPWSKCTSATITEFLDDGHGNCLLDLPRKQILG
Method: Aggrecanase-2 (0.5 to 1 μg of protein, 17 to 33 picomoles) was diluted in assay buffer (50 mM HEPES pH 7.5, 10 mM CaCl2, 0.1M NaCl, 0.05% Brij-35). Samples were prepared containing Inhibitor A, B or C (shown above) at final concentrations ranging from 0.1 to 12.5 μM (final DMSO concentration of 1.5%). Duplicate assays were run for each concentration of Inhibitor A, B and C (purchased from Peptides International, TAPI-0, Cat. No. INH 3850-P1) for 60 minutes at room temperature. The reaction was initiated by the addition of FasL1 peptide substrate to a final concentration of 225 μM. The reaction rates over 60 minutes at room temperature, in the absence (control) and presence of various concentrations of the inhibitor, were determined by linear regression of the data points. The reaction rate data in FIG. 4B were fitted by non-linear regression using the program Grafit (Erithacus Software).

[2] = target: T2, Aggrecanase-1 (Homo sapiens, UniProt O75173); assay: Drug screening assay, aggrecanase-1 FasL1 FRET peptide cleavage; conditions: inhibitor 7.5 micromolar, FasL1 225 μM, 200 minutes at room temperature
T2 construct: made in house; host or cells: Sf9 cells (baculovirus, pFastBac1)
T2 sequence (O75173 213-437): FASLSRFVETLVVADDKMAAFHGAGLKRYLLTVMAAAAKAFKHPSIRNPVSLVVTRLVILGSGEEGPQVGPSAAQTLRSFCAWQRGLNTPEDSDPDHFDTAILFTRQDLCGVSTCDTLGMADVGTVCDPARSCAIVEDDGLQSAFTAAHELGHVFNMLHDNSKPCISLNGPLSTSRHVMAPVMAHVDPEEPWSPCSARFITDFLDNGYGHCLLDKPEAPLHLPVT
Method: Aggrecanase-1 ([…] of protein, 85 to 167 picomoles) was diluted in assay buffer (50 mM HEPES pH 7.5, 10 mM CaCl2, 0.1M NaCl, 0.05% Brij-35). Samples were prepared containing putative inhibitors A (Chen et al. Biorg. Med. Chem. Lett. 6(13):1601-1606, 1996) or B (Bailey, et al. Biorg. Med. Chem. Lett. 9(21):3165-3170, 1999), shown below, at a final concentration of 7.5 micromolar. The final % DMSO in the assay was 3% and it was determined experimentally that this concentration was not detrimental to the activity of the enzyme. The reaction was initiated by the addition of FasL1 peptide substrate to a final concentration of 225 μM and readings were taken at one-minute intervals, for a total of 200 minutes at room temperature.
The assay was always performed at enzyme and substrate concentrations where the activity was linearly related to enzyme concentration and where the increase in fluorescence (reaction rate) was linear for at least the time of the assay. From FIG. 4A, it can be seen that for kinetic analysis, the signal-to-noise ratio is effectively infinite, as no change in the background (blank, no enzyme) is observed over the time of the assay. For endpoint measurements, the enzyme and substrate concentrations could be adjusted to achieve the desired signal-to-noise ratio. […]

[3] = target: T1, aggrecanase-2; assay: Kinetic analysis of aggrecanase-2 peptide cleavage (Km, Vm); conditions: aggrecanase-2, 60 minutes at room temperature, non-linear fitting; for Vm: rfu = relative fluorescence units
Method: To confirm the screening assay, aggrecanase-2 was further analyzed for its rate of catalysis using 2 different peptides. The assay was performed by diluting the aggrecanase-2 in assay buffer (50 mM HEPES pH 7.5, 10 mM CaCl2, 0.1M NaCl and 0.05% Brij-35). […] The assay was run for 60 minutes at room temperature. FIG. 3 illustrates the proteolytic activity (in relative fluorescence units per minute) as a function of peptide concentration for peptides FasL1 and 29CD23. The curves were fitted to the data with the program Grafit (Erithacus Software Lmited). The Vmax and Km for each substrate were calculated by non-linear fitting of the data. The cleavage site for aggrecanase-2 within each peptide was determined by LC-MS analysis to be between a glutamic acid and leucine residues in each case, as indicated in Table 2 by a carot within each peptide sequence. […] However, these are clearly not the only requirements for efficient cleavage, as a number of the 56 peptides tested have similar residues and were not cleaved by the aggrecanases.

[4] = target: T3, truncated aggrecanase-2 (Homo sapiens, UniProt Q9UNA0); assay: FRET peptide substrate screening, truncated aggrecanase-2; conditions: peptide 50 uM, 60 minutes at room temperature
T3 construct: made in house; host or cells: Sf9 cells (baculovirus, pFastBac1)
T3 sequence (Q9UNA0 262-482): T1 sequence (Q9UNA0 262-482)
Excerpt: (§1) Fifty-six different peptides were synthesized to test for protease activity (see Table 3 below). The peptides included a collection of substrates for other proteases, as well as a number of sequences corresponding to membrane proximal cleavage sites of various proteins postulated to be released by metalloproteases (including those published by (Roghani et al., J. Biol. Chem. 274:3531-340, 1999) for ADAM9/MDC9). In order to use the principle of fluorescence resonance energy transfer, or FRET, the peptides were labeled at the C-terminus with Dabcyl and at the N-terminus with Aedans (or vice versa). Thus cleavage of the peptides was monitored by the increase in Aedans fluorescence at 460 nm (excitation 360 nm) as a result of the decrease in proximity of the Dabcyl quencher. The assay was performed by diluting the truncated aggrecanase-1 (approximately 2.5 to 5 μg of protein, 85 to 167 picomoles, SEQ ID NO:8) or truncated aggrecanase-2 (approximately 0.5 to 1 μg of protein, 17 to 33 picomoles, SEQ ID NO:9), in assay buffer (50 mM HEPES pH 7.5, 10 mM CaCl2, 0.1M NaCl and 0.05% (w/v) Brij-35 detergent (Sigma).
(§2) The reaction was initiated by the addition of peptide substrate to a final concentration of 100 uM for truncated aggrecanase-1 and 50 uM for truncated aggrecanase-2. The assays were typically run for 60 minutes at room temperature and the slope of the kinetic increase in fluorescence was determined to calculate the rate of the reaction.
FIG. 2 illustrates the relative activities for the 56 different peptides, A1 to H7 (only every alternate peptide is numbered in FIG. 2) expressed in arbitrary, but relative units. […] Peptide D7 (16 amino acids) corresponds to the sequence within aggrecan containing the Glu373-Ala374 aggrecanase cleavage site.

[5] = target: T4, truncated aggrecanase-1 (Homo sapiens, UniProt O75173); assay: FRET peptide substrate screening, truncated aggrecanase-1; conditions: peptide 100 uM, 60 minutes at room temperature
T4 construct: made in house; host or cells: Sf9 cells (baculovirus, pFastBac1)
T4 sequence (O75173 213-437): T2 sequence (O75173 213-437)
Excerpt: as §1, with “The assay was performed by diluting the truncated aggrecanase-1 (approximately 2.5 to 5 μg of protein, 85 to 167 picomoles, SEQ ID NO:8) or truncated aggrecanase-2 (approximately 0.5 to 1 μg of protein, 17 to 33 picomoles, SEQ ID NO:9), in assay buffer (50 mM HEPES pH 7.5, 10 mM CaCl2, 0.1M NaCl and 0.05% (w/v) Brij-35 detergent (Sigma).” left out
as §2, with “reaction. […]” for “reaction.”

[6] = target: T5, MMP13 (Homo sapiens, UniProt P45452); assay: Similar peptide substrate screening assay with MMP13; conditions: similar screening assays
T5 construct: purchased Chemicon CC068

[7] = target: T6, MMP7 (Homo sapiens, UniProt P09237); assay: Similar peptide substrate screening assay with MMP7; conditions: similar screening assays
T6 construct: purchased Chemicon CC1059
T6 sequence (P09237 95-267): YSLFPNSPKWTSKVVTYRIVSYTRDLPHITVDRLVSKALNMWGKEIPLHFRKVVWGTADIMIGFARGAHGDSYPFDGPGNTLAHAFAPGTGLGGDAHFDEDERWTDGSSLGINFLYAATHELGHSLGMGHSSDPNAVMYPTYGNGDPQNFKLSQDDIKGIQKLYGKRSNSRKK

IC50 [1] [nM]	inhibition of aggrecanase-1 enzyme activity (FIG. 4A) [2]	Km [3] [µM]	Vm [3] [rfu/min]	relative activity of truncated aggrecanase-2 for the peptide (FIG. 2) [4]	Compound	relative activity of truncated aggrecanase-1 for the peptide (FIG. 2) [5]	further results
102 ± 23					CC(C)C[C@@H](CC(=O)NO)C(=O)N[C@@H](Cc1ccc2ccccc2c1)C(=O)N[C@@H](C)C(N)=O [Inhibitor C, TAPI-0]		
38 ± 8	completely inhibited				CC(C)(C)C(NC(=O)C(Cc1ccc2ccccc2c1)[C@H](O)C(=O)NO)C(N)=O (stereo partly shown) [Inhibitor B]		
		40	0.6	high activity	(Aedans)EADLSSFKSQEL(Dabcyl)K-amide (EADLSSFKSQELK(Dabcyl′)-NH2; not fully specified (residue 1, N-terminus); printed as (Aedans)EADLSSFKSQEL(Dabcyl)K-amide; also: Aedans label on N-terminal Glu (N-terminus or side chain not given here)) [Peptide 29CD23]		
118 ± 5	completely inhibited				CC(C)C[C@@H](CC(=O)NO)C(=O)N[C@@H](CC(C)C)c1ncc(-c2ccccc2)[nH]1 [Inhibitor A]		
		80	2.8	highest activity	(Aedans)EKELAELRESTS(Dabcyl)K-amide (EKELAELRESTSK(Dabcyl′)-NH2; not fully specified (residue 1, N-terminus); printed as (Aedans)EKELAELRESTS(Dabcyl)K-amide; also: Aedans label on N-terminal Glu (N-terminus or side chain not given here)) [FasL1]	highest activity	suitability as substrate for MMP13 [6]: suitable substrate; suitability as substrate for MMP7 [7]: suitable substrate

Compound	IC50 [1] [nM]	inhibition of aggrecanase-1 enzyme activity (FIG. 4A) [2]	Km [3] [µM]	Vm [3] [rfu/min]	relative activity of truncated aggrecanase-2 for the peptide (FIG. 2) [4]	relative activity of truncated aggrecanase-1 for the peptide (FIG. 2) [5]	further results
(Aedans)ERNITEGEARGSVIL(Dabcyl)K-amide (ERNITEGEARGSVILK(Dabcyl′)-NH2; not fully specified (residue 1, N-terminus); printed as (Aedans)ERNITEGEARGSVIL(Dabcyl)K-amide; also: Aedans label on N-terminal Glu (N-terminus or side chain not given here)) [Peptide D7]					Neither truncated aggrecanase-1 nor truncated aggrecanase-2 showed any activity	Neither truncated aggrecanase-1 nor truncated aggrecanase-2 showed any activity	
